Test results published in US20120288510A1 (UNIVERSITY OF MASSACHUSETTS, published 2012).
Read-outs that look alike come from different tables or passages of the source. No end group written: not given here.

Assays:
[1] = molecular target: T1, E2-G bacterially expressed fusion protein with the E2 412-423 sequence of genotype 3a (Hepatitis C virus genotype 3a, also: vector linker residues not given here); assay: ELISA on coated bacterial fusion protein; two-fold antibody dilutions; goat anti-human AP, PNPP
T1 construct: not shown: thioredoxin, N-terminal fusion partner of the pET32 vector; C-terminal myc and 6 histidine tags
T1 chain: thioredoxin-QLVNSSGSWHIN-{myc tag-His6 tag}

[2] = molecular target: T2, E2-G bacterially expressed fusion protein with the E2 412-423 sequence of genotype 6g (Hepatitis C virus genotype 6g, not fully specified (N-terminus); also: N-terminal thioredoxin fusion partner); assay: as above
T2 construct: not shown: thioredoxin, N-terminal fusion partner of the pET32 vector; C-terminal myc and 6 histidine tags
T2 chain: QLIKTNGSWHIN-{myc tag-His6}

[3] = molecular target: T3, E2-G bacterially expressed fusion protein with the E2 412-423 sequence of genotype 6k (Hepatitis C virus genotype 6k, not fully specified (N-terminus); also: N-terminal thioredoxin fusion partner); assay: as above
T3 construct: not shown: thioredoxin, N-terminal fusion partner of the pET32 vector; C-terminal myc and 6 histidine tags
T3 chain: QLINSNGSWHVN-{myc tag-His6}

[4] = molecular target: T4, E2-G bacterially expressed fusion protein with the E2 412-423 sequence of genotype 5a (Hepatitis C virus genotype 5a, not fully specified (N-terminus); also: N-terminal thioredoxin fusion partner); assay: as above
T4 construct: not shown: thioredoxin, N-terminal fusion partner of the pET32 vector; C-terminal myc and 6 histidine tags
T4 chain: QFVNTNGSWHIN-{myc tag-His6}

[5] = molecular target: T5, E2-G bacterially expressed thioredoxin fusion protein (pET32-E2-G, E2 amino acids 412 to 423) (Hepatitis C virus genotype 1a, not fully specified (N-terminus); also: N-terminal thioredoxin fusion partner); assay: as above
T5 construct: also called WT; not shown: thioredoxin, N-terminal fusion partner of the pET32 vector; C-terminal myc and 6 histidine tags
T5 chain: QLINTNGSWHIN-{myc tag-His6}

[6] = molecular target: T6, E2-G bacterially expressed fusion protein with the E2 412-423 sequence of genotype 4a (Hepatitis C virus genotype 4a, also: vector linker residues not given here); assay: as above
T6 construct: not shown: thioredoxin, N-terminal fusion partner of the pET32 vector; C-terminal myc and 6 histidine tags
T6 chain: thioredoxin-QLINSNGSWHIN-{myc tag-His6 tag}

[7] = molecular target: T7, E2-G bacterially expressed fusion protein with the E2 412-423 sequence of genotype 2b (Hepatitis C virus genotype 2b, also: vector linker residues not given here); assay: as above
T7 construct: not shown: thioredoxin, N-terminal fusion partner of the pET32 vector; C-terminal myc and 6 histidine tags
T7 chain: thioredoxin-HLVNSNGSWHIN-{myc tag-His6 tag}

[8] = molecular target: T5, E2-G bacterially expressed thioredoxin …; assay: Biacore SPR; antibody captured on goat anti-human IgG Fc, E2-G flowed over at varying concentrations; BIAevaluation fit
Q412A [9] = molecular target: T8, Q412A (not fully specified); assay: ELISA on coated bacterial fusion protein; two-fold antibody dilutions; goat anti-human AP, PNPP
T8 construct: alanine scanning mutant of E2-G; also called pET32-E2-G-Q412A; not shown: N-terminal thioredoxin partner and vector-encoded stretch of pET32
T8 chain: ALINTNGSWHINHHHHHH

L413A = assay: as above
I422A [10] = molecular target: T9, I422A; assay: as above
T9 construct: alanine scanning mutant of E2-G; also called pET32-E2-G-I422A (printed in the text as pET32-E2-G-1422A)

S419A [11] = molecular target: T10, S419A; assay: as above
T10 construct: alanine scanning mutant of E2-G; also called pET32-E2-G-S419A

T416A [12] = molecular target: T11, T416A; assay: as above
T11 construct: alanine scanning mutant of E2-G; also called pET32-E2-G-T416A; not shown: N-terminal thioredoxin partner and vector-encoded stretch of pET32

N417A [13] = molecular target: T12, N417A; assay: as above
T12 construct: alanine scanning mutant of E2-G; also called pET32-E2-G-N417A

H421A [14] = molecular target: T13, H421A; assay: as above
T13 construct: alanine scanning mutant of E2-G; also called pET32-E2-G-H421A

G418A = molecular target: T14, G418A; assay: as above
T14 construct: alanine scanning mutant of E2-G; also called pET32-E2-G-G418A

[15] = molecular target: T5, E2-G bacterially expressed thioredoxin …; assay: as above
I414A [16] = molecular target: T15, I414A (not fully specified); assay: as above
T15 construct: alanine scanning mutant of E2-G; also called pET32-E2-G-I414A (printed in the text as pET32-E2-G-1414A); not shown: N-terminal thioredoxin partner and vector-encoded stretch of pET32
T15 chain: QLANTNGSWHINHHHHHH

N423A [17] = molecular target: T16, N423A; assay: as above
T16 construct: alanine scanning mutant of E2-G; also called pET32-E2-G-N423A

N415A [18] = molecular target: T17, N415A (not fully specified); assay: as above
T17 construct: alanine scanning mutant of E2-G; also called pET32-E2-G-N415A; not shown: N-terminal thioredoxin partner and vector-encoded stretch of pET32
T17 chain: QLIATNGSWHINHHHHHH

[19] = molecular target: E2-G bacterially expressed fusion protein with the E2 412-423 sequence of a genotype 5 strain (genba (Hepatitis C virus genotype 5)); assay: ELISA, fusion protein coated on plate
E2-D [20] = assay: ELISA on coated bacterial fusion protein; two-fold antibody dilutions; goat anti-human AP, PNPP
Chain of E2-D (P27958 436-463, tags left off): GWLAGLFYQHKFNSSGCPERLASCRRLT

[21] = molecular target: T5, E2-G bacterially expressed thioredoxin …; assay: as above
[22] = molecular target: T18, soluble HCV genotype 1b E2-661 (pCDNA-1b-E2-661) (Hepatitis C virus genotype 1b); assay: ELISA on plate coated with 2 µg/ml antigen; two-fold antibody dilutions; goat anti-human AP, PNPP
T18 construct: range 364-661

Q412A [23] = molecular target: T8, Q412A; assay: ELISA on coated bacterial fusion protein; two-fold antibody dilutions; goat anti-human AP, PNPP
I422A [24] = molecular target: T9, I422A; assay: as above; remark: listed apart in the source
S419A [25] = molecular target: T10, S419A; assay: as above; remark: listed apart in the source
T416A [26] = molecular target: T11, T416A; assay: as above; remark: listed apart in the source
N417A [27] = molecular target: T12, N417A; assay: as above; remark: listed apart in the source
H421A [28] = molecular target: T13, H421A; assay: as above; remark: listed apart in the source
[29] = molecular target: T5, E2-G bacterially expressed thioredoxin …; assay: as above
I414A [30] = molecular target: T15, I414A; assay: as above
N423A [31] = molecular target: T16, N423A; assay: as above; remark: listed apart in the source
N415A [32] = molecular target: T17, N415A; assay: as above
[33] = molecular target: T1, E2-G bacterially expressed fusion …; assay: as above
[34] = molecular target: T2, E2-G bacterially expressed fusion …; assay: as above
[35] = molecular target: T3, E2-G bacterially expressed fusion …; assay: as above
[36] = molecular target: T5, E2-G bacterially expressed thioredoxin …; assay: as above
[37] = molecular target: T6, E2-G bacterially expressed fusion …; assay: as above
[38] = molecular target: T7, E2-G bacterially expressed fusion …; assay: as above
E2-D [39] = assay: as above; remark: listed apart in the source

B1: human antibody 95-2 (antibody, V domains shown)
VH: QVQLVESGGGVVQPGRSLRLSCAASGFTFSSYGMHWVRQAPGKGLEWVAVIWFDGNNQYYADSVKGRFTISRDNSKNTLYLQMNSLRAEDTAVYYCARDIFTVVRGFFIYFDYWGQGTLVTVSS
VL: EIVLTQSPATLSLSPGERATLSCRASQSVGSYLAWYQQKPGQAPRLLIYDASNRATGIPARFSGSGSGTDFTLTISSLEPEDFAVYYCQQRSNWVTFGQGTRLEIK
notes: also called clone 95-2
- EC50 (read off the curve) [1]: ~0.02 µg/mL
- EC50 (read off the curve) [2]: ~0.02 µg/mL
- EC50 (read off the curve) [3]: ~0.02 µg/mL
- EC50 (read off the curve) [4]: ~0.02 µg/mL
- EC50 (read off the curve) [5]: ~0.02 µg/mL
- EC50 (read off the curve) [6]: ~0.02 µg/mL
- EC50 (read off the curve) [7]: ~0.02 µg/mL
- Kd [8]: 1.9 nM
- koff [8]: 0.0003 s⁻¹
- kon [8]: 160000 M⁻¹ s⁻¹
- EC50 (read off the curve) (Q412A [9]): ~0.02 µg/mL
- binding result (L413A): binds
- EC50 (read off the curve) (I422A [10]): ~0.02 µg/mL
- EC50 (read off the curve) (S419A [11]): ~0.02 µg/mL
- EC50 (read off the curve) (T416A [12]): ~0.02 µg/mL
- EC50 (read off the curve) (N417A [13]): ~0.02 µg/mL
- EC50 (read off the curve) (H421A [14]): ~0.02 µg/mL
- EC50 (read off the curve) (G418A): ~0.03 µg/mL
- EC50 (read off the curve) [15]: ~0.02 µg/mL
- EC50 (read off the curve) (I414A [16]): ~0.02 µg/mL
- EC50 (read off the curve) (N423A [17]): ~0.02 µg/mL
- EC50 (read off the curve) (N415A [18]): ~0.02 µg/mL
- fold reduction of recognition (reference not named) [19]: 10 fold
- binding result (E2-D [20]): no binding (tested: 1 µg/ml)
- EC50 (read off the curve) [21]: ~0.04 µg/mL
- EC50 (read off the curve) [22]: ~0.1 µg/mL

B2: human antibody 83-128 (antibody, V domains shown)
VH: QVQLVESGGGVVQPGRSLRLSCTASGFTFNNYGMHWVRQTPGKGLEWLAVIWFDENNKYYADSVRGRFTISRDNSKNTLFLQMNSLKTEDTAMYYCARDISLVRDAFIYFDFWGLGTLVTVSS
VL: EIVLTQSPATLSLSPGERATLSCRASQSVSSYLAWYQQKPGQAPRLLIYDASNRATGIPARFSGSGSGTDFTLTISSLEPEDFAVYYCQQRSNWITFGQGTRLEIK
- Kd [8]: 3.8 nM
- koff [8]: 0.00073 s⁻¹
- kon [8]: 190000 M⁻¹ s⁻¹
- EC50 (read off the curve) (Q412A [23]): ~0.02 µg/mL
- EC50 (read off the curve) (I422A [24]): ~0.02 µg/mL
- EC50 (read off the curve) (S419A [25]): ~0.02 µg/mL
- EC50 (read off the curve) (T416A [26]): ~0.02 µg/mL
- EC50 (read off the curve) (N417A [27]): ~0.02 µg/mL
- EC50 (read off the curve) (H421A [28]): ~0.02 µg/mL
- EC50 (read off the curve) [29]: ~0.02 µg/mL
- EC50 (read off the curve) (I414A [30]): ~0.03 µg/mL
- EC50 (read off the curve) (N423A [31]): ~0.02 µg/mL
- EC50 (read off the curve) (N415A [32]): ~0.02 µg/mL
- EC50 (read off the curve) [33]: ~0.006 µg/mL
- EC50 (read off the curve) [34]: ~0.006 µg/mL
- EC50 (read off the curve) [35]: ~0.006 µg/mL
- EC50 (read off the curve) [36]: ~0.006 µg/mL
- EC50 (read off the curve) [37]: ~0.006 µg/mL
- EC50 (read off the curve) [38]: ~0.006 µg/mL
- binding result (E2-D [39]): no binding (tested: 1 µg/ml)
